Measured values taken from US20180339041A1 (Kyowa Kirin, published 2018).

Target: T1, C-terminally FLAG-tagged human Gas6 recombinant protein (hGas6-F) (human, UniProt Q14393 31-678, gamma-carboxylated glutamic acid residues in the Gla domain (producer cells co-express rat VKOR and human GGCX); positions not given)
T1 construct: also called human Gas6-F; human Gas6 protein
T1 sequence: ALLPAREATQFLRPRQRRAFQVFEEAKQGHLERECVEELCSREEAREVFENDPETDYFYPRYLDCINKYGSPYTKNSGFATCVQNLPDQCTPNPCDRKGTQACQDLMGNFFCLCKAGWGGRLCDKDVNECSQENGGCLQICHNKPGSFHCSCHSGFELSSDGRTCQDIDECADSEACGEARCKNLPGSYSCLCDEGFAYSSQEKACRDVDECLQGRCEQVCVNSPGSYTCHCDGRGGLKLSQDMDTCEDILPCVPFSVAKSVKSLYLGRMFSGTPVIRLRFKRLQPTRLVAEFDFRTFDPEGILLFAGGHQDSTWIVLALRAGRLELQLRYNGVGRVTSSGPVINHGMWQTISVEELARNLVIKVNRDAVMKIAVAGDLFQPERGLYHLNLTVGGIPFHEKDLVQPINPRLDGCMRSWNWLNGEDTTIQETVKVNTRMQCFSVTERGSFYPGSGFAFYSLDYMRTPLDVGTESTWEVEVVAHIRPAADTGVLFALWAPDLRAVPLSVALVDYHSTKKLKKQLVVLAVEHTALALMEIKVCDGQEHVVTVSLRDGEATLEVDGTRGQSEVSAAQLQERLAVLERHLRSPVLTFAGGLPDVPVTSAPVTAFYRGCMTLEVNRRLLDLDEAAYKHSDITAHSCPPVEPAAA
Assay: SPR Biacore T100, captured antibody, Gas6 analyte, first test
Description: An anti-human IgG antibody was immobilized on a CM5 sensor chip (manufactured by GE Healthcare Japan Corp.) using Human Antibody Capture Kit (manufactured by GE Healthcare Japan Corp.) according to the attached manual. Each test antibody adjusted to 1 μg/mL was added for 10 seconds at a flow rate of 10 μL/min to flow cells. […] The measurement was performed by the […] method. The obtained sensorgram was analyzed using Bia Evaluation Software (manufactured by GE Healthcare Japan Corp.), and the kinetic constant of each antibody was calculated.

B1: hzKM5320 LV5HV3a antibody (antibody, V domains shown)
VH: QVQLVQSGSELKKPGASVKVSCKASGYTFTNYGMNWVRQAPGQGLKWMGWINTETGEPTYSDDFKGRFVFSLDTSVSTAYLQISSLKAEDTATYFCAREDGYYGTLDYWGQGTTVTVSS
VL: DIVMTQSPDSLAVSLGERVTINCKASQSVSNDVAWYQQKPGQSPKVLIYYASNRYTGVPDRFSGSGSGTDFTFTISSVQAEDVAVYFCQQDYSSPWTFGQGTKLEIK
notes: Humanized; variant human IgG4 constant region (EU S228P, L235E, R409K), human kappa; also called A-21
- Kd: < 2.3 nM
- koff: 0.000177 s⁻¹
- kon: > 77100 M⁻¹ s⁻¹

B2: hzKM5320 LV3HV0 antibody (antibody, V domains shown)
VH: QVQLVQSGSELKKPGASVKVSCKASGYTFTNYGMNWVRQAPGQGLEWMGWINTETGEPTYSDDFKGRFVFSLDTSVSTAYLQISSLKAEDTAVYYCAREDGYYGTLDYWGQGTTVTVSS
VL: DVVMTQSPDSLAVSLGERVTINCKASQSVSNDVAWYQQKPGQSPKVLIYYASNRYTGVPDRFSGSGSGTDFTFTISSLQAEDVAVYFCQQDYSSPWTFGQGTKLEIK
notes: Humanized; variant human IgG4 constant region (EU S228P, L235E, R409K), human kappa; also called A-07
- Kd: < 2.91 nM
- koff: 0.000209 s⁻¹
- kon: > 71900 M⁻¹ s⁻¹

B3: hzKM5320 LV0HV8 antibody (antibody, V domains shown)
VH: QIQLVQSGPELKKPGASVKISCKASGYTFTNYGMNWVKQAPGQGLKWMGWINTETGEPTYSDDFKGRFVFSLDTSVTTAYLQISSLKAEDTATYFCAREDGYYGTLDYWGQGTTVTVSS
VL: DVVMTQSPDSLAVSLGERVTINCKASQSVSNDVAWYQQKPGQSPKLLIYYASNRYTGVPDRFSGSGSGTDFTLTISSLQAEDVAVYYCQQDYSSPWTFGQGTKLEIK
notes: Humanized; variant human IgG4 constant region (EU S228P, L235E, R409K), human kappa; also called A-10
- Kd: < 9.79 nM
- koff: 0.000714 s⁻¹
- kon: > 72900 M⁻¹ s⁻¹

B4: hzKM5320 LV5HV4 antibody (antibody, V domains shown)
VH: QVQLVQSGPELKKPGASVKVSCKASGYTFTNYGMNWVRQAPGQGLKWMGWINTETGEPTYSDDFKGRFVFSLDTSVSTAYLQISSLKAEDTATYFCAREDGYYGTLDYWGQGTTVTVSS
VL: DIVMTQSPDSLAVSLGERVTINCKASQSVSNDVAWYQQKPGQSPKVLIYYASNRYTGVPDRFSGSGSGTDFTFTISSVQAEDVAVYFCQQDYSSPWTFGQGTKLEIK
notes: Humanized; variant human IgG4 constant region (EU S228P, L235E, R409K), human kappa; also called A-24
- Kd: < 2.19 nM
- koff: 0.000173 s⁻¹
- kon: > 79200 M⁻¹ s⁻¹

B5: hzKM5320 LV5HV3b antibody (antibody, V domains shown)
VH: QIQLVQSGSELKKPGASVKISCKASGYTFTNYGMNWVRQAPGQGLEWMGWINTETGEPTYSDDFKGRFVFSLDTSVSTAYLQISSLKAEDTAVYFCAREDGYYGTLDYWGQGTTVTVSS
VL: DIVMTQSPDSLAVSLGERVTINCKASQSVSNDVAWYQQKPGQSPKVLIYYASNRYTGVPDRFSGSGSGTDFTFTISSVQAEDVAVYFCQQDYSSPWTFGQGTKLEIK
notes: Humanized; variant human IgG4 constant region (EU S228P, L235E, R409K), human kappa; also called A-22
- Kd: < 2.01 nM
- koff: 0.000153 s⁻¹
- kon: > 76300 M⁻¹ s⁻¹

B6: hzKM5320 LV3HV8 antibody (antibody, V domains shown)
VH: QIQLVQSGPELKKPGASVKISCKASGYTFTNYGMNWVKQAPGQGLKWMGWINTETGEPTYSDDFKGRFVFSLDTSVTTAYLQISSLKAEDTATYFCAREDGYYGTLDYWGQGTTVTVSS
VL: DVVMTQSPDSLAVSLGERVTINCKASQSVSNDVAWYQQKPGQSPKVLIYYASNRYTGVPDRFSGSGSGTDFTFTISSLQAEDVAVYFCQQDYSSPWTFGQGTKLEIK
notes: Humanized; variant human IgG4 constant region (EU S228P, L235E, R409K), human kappa; also called A-15
- Kd: < 2.3 nM
- koff: 0.000174 s⁻¹
- kon: > 75600 M⁻¹ s⁻¹

B7: hzKM5320 LV5HV6 antibody (antibody, V domains shown)
VH: QVQLVQSGPELKKPGASVKISCKASGYTFTNYGMNWVKQAPGQGLKWMGWINTETGEPTYSDDFKGRFVFSLDTSVSTAYLQISSLKAEDTATYFCAREDGYYGTLDYWGQGTTVTVSS
VL: DIVMTQSPDSLAVSLGERVTINCKASQSVSNDVAWYQQKPGQSPKVLIYYASNRYTGVPDRFSGSGSGTDFTFTISSVQAEDVAVYFCQQDYSSPWTFGQGTKLEIK
notes: Humanized; variant human IgG4 constant region (EU S228P, L235E, R409K), human kappa; also called A-25
- Kd: < 1.8 nM
- koff: 0.000147 s⁻¹
- kon: > 81700 M⁻¹ s⁻¹

B8: hzKM5320 LV2bHV0 antibody (antibody, V domains shown)
VH: QVQLVQSGSELKKPGASVKVSCKASGYTFTNYGMNWVRQAPGQGLEWMGWINTETGEPTYSDDFKGRFVFSLDTSVSTAYLQISSLKAEDTAVYYCAREDGYYGTLDYWGQGTTVTVSS
VL: DVVMTQSPDSLAVSAGERVTINCKASQSVSNDVAWYQQKPGQSPKLLIYYASNRYTGVPDRFSGSGSGTDFTFTISSLQAEDVAVYYCQQDYSSPWTFGQGTKLEIK
notes: Humanized; variant human IgG4 constant region (EU S228P, L235E, R409K), human kappa; also called A-06
- Kd: < 14.4 nM
- koff: 0.00104 s⁻¹
- kon: > 72600 M⁻¹ s⁻¹
